Test results as given in patent publication US20030061635A1 (published 2003).

B1: synthetic peptide MP-1 (18-amino acid CaM-binding domain of maize NPG1) (peptide)
peptide: VSKGWRLLALILSAQQRF
notes: Chemically synthesized, purity about 95%; also called the synthetic peptide; maize NPG1-synthetic peptide

Experiments:
[1] = molecular target: T1, Arabidopsis thaliana CaM isoform 2 (Arabidopsis thaliana, UniProt P0DH97 1-149); assay: slot blot of peptide probed with 35S-labeled AtCaM isoform
T1 construct: also called CaM2; CaM-2

[2] = molecular target: T2, Arabidopsis thaliana CaM isoform 4 (Arabidopsis thaliana, UniProt P0DH96 1-149); assay: as above
T2 construct: Used 35S-labeled, unlabeled or HRP-labeled, depending on the assay; also called CaM4; CaM-4

[3] = molecular target: T3, Arabidopsis thaliana CaM isoform 6 (Arabidopsis thaliana, UniProt Q03509 1-149); assay: as above
T3 construct: Used 35S-labeled, unlabeled or HRP-labeled, depending on the assay; also called CaM6; CaM-6

[4] = molecular target: T1, Arabidopsis thaliana CaM isoform 2; assay: tryptophan fluorescence spectroscopy, equimolar peptide and CaM, excitation 290 nm
Description: (§1) FIG. 4A is the analysis of CaM binding to a synthetic 18-amino acid peptide (MP-1, SEQ ID NO:2) by electrophoretic mobility shift polyacrylamide gels with 4 M urea. Lane 1 contained CaM alone (166 pmol), lanes 2-4 contained CaM (166 pmol) and 166, 332 and 664 pmol, respectively of synthetic MP-1. BCaM is bovine CaM, CaM2, CaM4, and CaM6 are the 2, 4, and 6 isoforms of Arabidopsis CaM. […] CaM and MP-1 (166 pmol) were incubated in 5 mM Tris, pH 7.3 and 0.5 mM CaCl₂. The excitation was measured at 290 nm and bandwidth for excitation and emission was 5 nm.
(§2) The tryptophan fluorescence spectra of free and CaM-bound synthetic peptide were recorded with a Hitachi-F-3010/4010 spectrofluorimeter as described in Reddy et al. (1996) supra. NPG1 peptide and AtCaMs (166 pmol each) were mixed in a […] reaction volume. The tryptophan residue in free and CaM-bound synthetic NPG1 peptide was excited at 290 nm and the emission wavelength values were recorded from 300 to 400 nm with a bandwidth of 5 nm in a 5-mm quartz cell at 25° C. Samples were incubated for 1 h at 25° C. prior to spectroscopic measurements. Corrections were made for the protein and solvent blanks.

bovine CaM (calmodulin) [5] = molecular target: T4, bovine CaM (calmodulin) (bovine, UniProt P62157 2-149); assay: as above
Description: as §1, §2

[6] = molecular target: T2, Arabidopsis thaliana CaM isoform 4; assay: as above
Description: as §1, §2

[7] = molecular target: T3, Arabidopsis thaliana CaM isoform 6; assay: as above
Description: as §1, §2

[8] = molecular target: T1, Arabidopsis thaliana CaM isoform 2; assay: tryptophan fluorescence spectroscopy, equimolar peptide and CaM (166 pmol each), excitation 290 nm
Description: as §1, §2

bovine CaM (calmodulin) [9] = molecular target: T4, bovine CaM (calmodulin); assay: as above
Description: as §1, §2

[10] = molecular target: T2, Arabidopsis thaliana CaM isoform 4; assay: as above
Description: as §1, §2

[11] = molecular target: T3, Arabidopsis thaliana CaM isoform 6; assay: as above
Description: as §1, §2

[12] = molecular target: T1, Arabidopsis thaliana CaM isoform 2; assay: gel mobility shift, 4 M urea, CaCl2; 166 pmol CaM and 166 pmol peptide
Description: (§3) To determine the stoichiometry of the CaM-peptide complex, we performed binding studies using the synthetic peptide (MP-1) and CaM in the presence of Ca²⁺ or EGTA. The binding of the synthetic peptide to CaM was detected by a gel mobility shift assay in polyacrylamide gels containing 4 M urea (FIG. 4A). […] In the presence of CaCl₂ the synthetic peptide retarded the migration of CaM in the gel indicating the formation of a complex between the peptide and CaM (FIG. 4A). […] At a molar ratio of 2:1 and 4:1 (peptide:CaM), the entire CaM migrated as a complex, and the band corresponding to the free CaM disappeared (FIG. 4A, lanes 3 and 4).
(§4) The interaction of CaM with synthetic peptide was also analyzed using electrophoretic mobility shift of CaM in the presence of a synthetic peptide. Each of the AtCaM isoforms and bovine CaM (166 pmol) were incubated with increasing concentrations of maize NPG1-synthetic peptide (166, 332, and 664 pmol) in the presence of 4 M urea, in a buffer containing 100 mM Tris-HCl, pH 7.5, and 1 mM CaCl₂ or 5 mM EGTA at room temperature for 1 h in a total volume of […]. Then, […] of sample buffer (0.375 M Tris-HCl, pH 6.8, 30% glycerol, and 0.023% bromphenol blue) was added to the samples and the mixture was electrophoresed in 12% polyacrylamide gels containing 4 M urea or 7.5% glycerol, 0.375 M Tris-HCl, pH 8.8, and either 1 mM CaCl₂ or 5 mM EGTA. The gels were run at a constant voltage of 25 V per gel in an electrode buffer (25 mM Tris-HCl, pH 8.3, 192 mM glycine, and either 1 mM CaCl₂ or 5 mM EGTA). The gels were stained with 0.25% Coomassie Blue R-250 in 7.5% acetic acid and 50% methanol for 1 h and then destained with 30% methanol and 7% acetic acid.

bovine CaM (calmodulin) [13] = molecular target: T4, bovine CaM (calmodulin); assay: as above
Description: as §3, §4

[14] = molecular target: T2, Arabidopsis thaliana CaM isoform 4; assay: as above
Description: as §3, §4

[15] = molecular target: T3, Arabidopsis thaliana CaM isoform 6; assay: as above
Description: as §3, §4

Row | Binder | binding result [1] | binding result [2] | binding result [3] | wavelength of peak tryptophan emission of the peptide with CaM (free peptide about 350 nm) [4] | wavelength of peak tryptophan emission of the peptide with CaM (free peptide about 350 nm) (bovine CaM (calmodulin) [5]) | wavelength of peak tryptophan emission of the peptide with CaM (free peptide about 350 nm) [6] | wavelength of peak tryptophan emission of the peptide with CaM (free peptide about 350 nm) [7] | tryptophan fluorescence intensity of the peptide with CaM (free peptide about 0.1) [8] | tryptophan fluorescence intensity of the peptide with CaM (free peptide about 0.1) (bovine CaM (calmodulin) [9]) | tryptophan fluorescence intensity of the peptide with CaM (free peptide about 0.1) [10] | tryptophan fluorescence intensity of the peptide with CaM (free peptide about 0.1) [11] | percent of CaM shifted at a molar ratio of 1:1 (peptide:CaM) [12] | percent of CaM shifted at a molar ratio of 1:1 (peptide:CaM) (bovine CaM (calmodulin) [13]) | percent of CaM shifted at a molar ratio of 1:1 (peptide:CaM) [14] | percent of CaM shifted at a molar ratio of 1:1 (peptide:CaM) [15]
1 | AKLDQGSLLRVKAKLKVAQSSPM [synthetic peptide MP-2 (different region of maize NPG1, negative control)] | no binding | no binding | no binding |  |  |  |  |  |  |  |  |  |  |  | 
2 | B1 |  |  |  | ~315 nm | ~315 nm | ~315 nm | ~315 nm | ~8.4 | ~6.1 | ~4.5 | ~6.1 | ~50% | ~50% | ~50% | ~50%
3 | ISSKEMVRLKKLVAYWKEQAGKK (Positive control peptide) [KCBP-peptide (CaM-binding peptide of kinesin-like calmodulin binding protein)] | binds | binds | binds |  |  |  |  |  |  |  |  |  |  |  | 
